The values below come from US9175313B2, “Three-dimensional structure of isoprene synthase and its use thereof for generating variants” (Danisco US Inc., priority 2009, dated 2015).

The assay can be described thus: Specific activity measurement of purified isoprene synthase variants (4 mM DMAPP, 30 C, GC-MS headspace). In kind it is biochemical. As to conditions: 50 mM NaCl, 50 mM Tris pH = 8, 30° C.; for Variant S.A./WT S.A.: ratio to WT. Here is the method: 1. Initial Purification—Resuspend the pellet in 3 ml of fresh lysis buffer. Break cells by passing them through the French Press using the small cylinder. Centrifuge samples for 1 hour at 30,000×G and collect the supernatant. Retain pellet in order to test for presence of insoluble protein. Pre equilibrate 0.5 mL Ni Sepharose 6 Fast Flow resin (Amersham) in a 20 ml disposable column with 10 mL of Ni wash buffer. Add protein to column and shake for 60 min at 4 C to bind protein. Elute protein with 2.5 mL Ni elution buffer.
2. Buffer Exchange—Equilibrate a PD-10 column (GE Healthcare) with 25 mL of PD-10 buffer. Load protein on to column and elute with 3.5 mL of PD-10 buffer.
10 uL of purified enzyme was incubated with 4 mM DMAPP, 50 mM MgCl2 in a buffer containing 50 mM Tris and 50 mM NaCl (pH=8) to a final volume of 100 uL for 15 min. at 30 C in gas tight 2 mL vials. Reactions were terminated with the addition of 100 uL of […] EDTA, pH=8. Samples were analyzed by GC-MS to determine the concentration of isoprene in the headspace of the vials. All specific activity measurements were performed in triplicate.
Protein concentration was determined by measuring the absorbance of each protein solution at 280 nm on a Helwlett Pachard 8453 UV-Vis spectrophotometer and converting the absorbance to protein concentration using the extinction coefficient as determined on the Expasy website (Gasteiger E., Hoogland C., Gattiker A., Duvaud S., Wilkins M. R., Appel R. D., Bairoch A.; Protein Identification and Analysis Tools on the ExPASy Server; (In) John M. Walker (ed): The Proteomics Protocols Handbook, Humana Press (2005). pp. 571-607). The protein concentrations of isoprene synthase variants assayed for KM and kcat determination were verified by comparative gel electrophoresis of a dilution series of each protein (FIG. 61).

B1: PC: P. alba MEA L494P T536C (+) TEV; pDW113, SEQ ID NO: 93 (protein)
chain: MEARRSANYEPNSWDYDYLLSSDTDESIEVYKDKAKKLEAEVRREINNEKAEFLTLLELIDNVQRLGLGYRFESDIRGALDRFVSSGGFDAVTKTSLHGTALSFRLLRQHGFEVSQEAFSGFKDQNGNFLENLKEDIKAILSLYEASFLALEGENILDEAKVFAISHLKELSEEKIGKELAEQVNHALELPLHRRTQRLEAVWSIEAYRKKEDANQVLLELAILDYNMIQSVYQRDLRETSRWWRRVGLATKLHFARDRLIESFYWAVGVAFEPQYSDCRNSVAKMFSFVTIIDDIYDVYGTLDELELFTDAVERWDVNAINDLPDYMKLCFLALYNTINEIAYDNLKDKGENILPYLTKAWADLCNAFLQEAKWLYNKSTPTFDDYFGNAWKSSSGPLQLVFAYFAVVQNIKKEEIENLQKYHDTISRPSHIFRLCNDLASASAEIARGETANSVSCYMRTKGISEELATESVMNLIDETWKKMNKEKLGGSPFAKPFVETAINLARQSHCTYHNGDAHTSPDELTRKRVLSVICEPILPFERENLYFQGLEHHHHHH
modifications: TEV site
As to B1, the S.A. is 490 ± 20 nmol/mg/min and the “Variant S.A./WT S.A.” value came to 1.0.

B2: SC: P. alba MEA G491S T536C (+) TEV; pDW111, SEQ ID NO: 89 (protein)
chain: MEARRSANYEPNSWDYDYLLSSDTDESIEVYKDKAKKLEAEVRREINNEKAEFLTLLELIDNVQRLGLGYRFESDIRGALDRFVSSGGFDAVTKTSLHGTALSFRLLRQHGFEVSQEAFSGFKDQNGNFLENLKEDIKAILSLYEASFLALEGENILDEAKVFAISHLKELSEEKIGKELAEQVNHALELPLHRRTQRLEAVWSIEAYRKKEDANQVLLELAILDYNMIQSVYQRDLRETSRWWRRVGLATKLHFARDRLIESFYWAVGVAFEPQYSDCRNSVAKMFSFVTIIDDIYDVYGTLDELELFTDAVERWDVNAINDLPDYMKLCFLALYNTINEIAYDNLKDKGENILPYLTKAWADLCNAFLQEAKWLYNKSTPTFDDYFGNAWKSSSGPLQLVFAYFAVVQNIKKEEIENLQKYHDTISRPSHIFRLCNDLASASAEIARGETANSVSCYMRTKGISEELATESVMNLIDETWKKMNKEKLSGSLFAKPFVETAINLARQSHCTYHNGDAHTSPDELTRKRVLSVICEPILPFERENLYFQGLEHHHHHH
modifications: TEV site
Regarding B2, the S.A. was found to be 440 ± 20 nmol/mg/min and the “Variant S.A./WT S.A.” value is reported as 0.9.

B3: NS: P. alba MEA A453N G491S (+) TEV; pDW103, SEQ ID NO: 73 (protein)
chain: MEARRSANYEPNSWDYDYLLSSDTDESIEVYKDKAKKLEAEVRREINNEKAEFLTLLELIDNVQRLGLGYRFESDIRGALDRFVSSGGFDAVTKTSLHGTALSFRLLRQHGFEVSQEAFSGFKDQNGNFLENLKEDIKAILSLYEASFLALEGENILDEAKVFAISHLKELSEEKIGKELAEQVNHALELPLHRRTQRLEAVWSIEAYRKKEDANQVLLELAILDYNMIQSVYQRDLRETSRWWRRVGLATKLHFARDRLIESFYWAVGVAFEPQYSDCRNSVAKMFSFVTIIDDIYDVYGTLDELELFTDAVERWDVNAINDLPDYMKLCFLALYNTINEIAYDNLKDKGENILPYLTKAWADLCNAFLQEAKWLYNKSTPTFDDYFGNAWKSSSGPLQLVFAYFAVVQNIKKEEIENLQKYHDTISRPSHIFRLCNDLASASAEIARGETNNSVSCYMRTKGISEELATESVMNLIDETWKKMNKEKLSGSLFAKPFVETAINLARQSHCTYHNGDAHTSPDELTRKRVLSVITEPILPFERENLYFQGLEHHHHHH
modifications: TEV site
Consider B3, for which the S.A. is 480 ± 40 nmol/mg/min and the “Variant S.A./WT S.A.” value amounted to 1.0.

B4: NP: P. alba MEA A453N L494P (+) TEV; pDW104, SEQ ID NO: 75 (protein)
chain: MEARRSANYEPNSWDYDYLLSSDTDESIEVYKDKAKKLEAEVRREINNEKAEFLTLLELIDNVQRLGLGYRFESDIRGALDRFVSSGGFDAVTKTSLHGTALSFRLLRQHGFEVSQEAFSGFKDQNGNFLENLKEDIKAILSLYEASFLALEGENILDEAKVFAISHLKELSEEKIGKELAEQVNHALELPLHRRTQRLEAVWSIEAYRKKEDANQVLLELAILDYNMIQSVYQRDLRETSRWWRRVGLATKLHFARDRLIESFYWAVGVAFEPQYSDCRNSVAKMFSFVTIIDDIYDVYGTLDELELFTDAVERWDVNAINDLPDYMKLCFLALYNTINEIAYDNLKDKGENILPYLTKAWADLCNAFLQEAKWLYNKSTPTFDDYFGNAWKSSSGPLQLVFAYFAVVQNIKKEEIENLQKYHDTISRPSHIFRLCNDLASASAEIARGETNNSVSCYMRTKGISEELATESVMNLIDETWKKMNKEKLGGSPFAKPFVETAINLARQSHCTYHNGDAHTSPDELTRKRVLSVITEPILPFERENLYFQGLEHHHHHH
modifications: TEV site
Take B4: the S.A. was determined as 490 ± 20 nmol/mg/min and the “Variant S.A./WT S.A.” value is given as 1.0.

B5: NC: P. alba MEA A453N T536C (+) TEV; pDW105, SEQ ID NO: 77 (protein)
chain: MEARRSANYEPNSWDYDYLLSSDTDESIEVYKDKAKKLEAEVRREINNEKAEFLTLLELIDNVQRLGLGYRFESDIRGALDRFVSSGGFDAVTKTSLHGTALSFRLLRQHGFEVSQEAFSGFKDQNGNFLENLKEDIKAILSLYEASFLALEGENILDEAKVFAISHLKELSEEKIGKELAEQVNHALELPLHRRTQRLEAVWSIEAYRKKEDANQVLLELAILDYNMIQSVYQRDLRETSRWWRRVGLATKLHFARDRLIESFYWAVGVAFEPQYSDCRNSVAKMFSFVTIIDDIYDVYGTLDELELFTDAVERWDVNAINDLPDYMKLCFLALYNTINEIAYDNLKDKGENILPYLTKAWADLCNAFLQEAKWLYNKSTPTFDDYFGNAWKSSSGPLQLVFAYFAVVQNIKKEEIENLQKYHDTISRPSHIFRLCNDLASASAEIARGETNNSVSCYMRTKGISEELATESVMNLIDETWKKMNKEKLGGSLFAKPFVETAINLARQSHCTYHNGDAHTSPDELTRKRVLSVICEPILPFERENLYFQGLEHHHHHH
modifications: TEV site
Turning to B5, the S.A. came to 420 ± 30 nmol/mg/min and the “Variant S.A./WT S.A.” value is recorded as 0.9.

B6: G491S: P. alba IspS variant G491S; pDW100, strain DW398, SEQ ID NO: 67 (protein)
chain: MEARRSANYEPNSWDYDYLLSSDTDESIEVYKDKAKKLEAEVRREINNEKAEFLTLLELIDNVQRLGLGYRFESDIRGALDRFVSSGGFDAVTKTSLHGTALSFRLLRQHGFEVSQEAFSGFKDQNGNFLENLKEDIKAILSLYEASFLALEGENILDEAKVFAISHLKELSEEKIGKELAEQVNHALELPLHRRTQRLEAVWSIEAYRKKEDANQVLLELAILDYNMIQSVYQRDLRETSRWWRRVGLATKLHFARDRLIESFYWAVGVAFEPQYSDCRNSVAKMFSFVTIIDDIYDVYGTLDELELFTDAVERWDVNAINDLPDYMKLCFLALYNTINEIAYDNLKDKGENILPYLTKAWADLCNAFLQEAKWLYNKSTPTFDDYFGNAWKSSSGPLQLVFAYFAVVQNIKKEEIENLQKYHDTISRPSHIFRLCNDLASASAEIARGETANSVSCYMRTKGISEELATESVMNLIDETWKKMNKEKLSGSLFAKPFVETAINLARQSHCTYHNGDAHTSPDELTRKRVLSVITEPILPFERENLYFQGLEHHHHHH
For the molecule B6, the S.A. stood at 480 ± 20 nmol/mg/min and the “Variant S.A./WT S.A.” value is 1.0.
